Measured values published in patent publication US20190271704.

Experiments:
[1] = molecular target: T1, NE nanosensor with heptafluorobutylamine reporter (peptide-PFC conjugated to a 40 kDa 8-arm PEG scaffold)
T1 chain: CKKKXXXX

[2] = molecular target: T2, NE peptide substrate with acetylated N-terminal CKKK-PEG4 linker and C-terminal heptafluorobutylamine reporter (peptide-PFC) (not fully specified)
T2 chain: CKKKXXXX

[3] = molecular target: T3, NE nanosensor with pentafluoropropylamine reporter (peptide-PFC conjugated to a 40 kDa 8-arm PEG scaffold)
T3 chain: CKKKXXXX

[4] = molecular target: T4, NE peptide substrate with acetylated N-terminal CKKK-PEG4 linker and C-terminal pentafluoropropylamine reporter (peptide-PFC) (not fully specified)
T4 chain: CKKKXXXX

B1: neutrophil elastase (NE) (protein)
chain: IVGGRRARPHAWPFMVSLQLRGGHFCGATLIAPNFVMSAAHCVANVNVRAVRVVLGAHNLSRREPTRQVFAVQRIFENGYDPVNLLNDIVILQLNGSATINANVQVAQLPAQGRRLGNGVQCLAMGWGLLGRNRGIASVLQELNVTVVTSLCRRSNVCTLVRGRQAGVCFGDSGSPLVCNGLIHGIASFVRGGCASGLYPDAFAPVAQFVNWIDSIIQ
kcat/Km (Michaelis-Menten kinetics of substrate cleavage) [1]: kcat/Km values were on the order of 10^5 M^-1s-^-1
PFC release from the peptide substrate (real-time vapor analysis mass spectrometry) [2]: cleaved specifically by NE
kcat/Km (Michaelis-Menten kinetics of substrate cleavage) [3]: kcat/Km values were on the order of 10^5 M^-1s-^-1
PFC release from the peptide substrate (real-time vapor analysis mass spectrometry) [4]: cleaved specifically by NE
